Source: the RNAGym collection of RNA variant scans (doi:10.7554/elife.80360)

B1: HDV Ribozyme (parent)
chain: GGCCGGCAUGGUCCCAGCCUCCUCGCUGGCGCCGGCUGGGCAACAUUCCGAGGGGACCGUCCCCUCGGUAAUGGCGAAUGGGACCCA

Variants of: B1
Assay: self-cleavage, relative activity (ratio to wild type); higher = more cleavage; co-transcriptional

Variant	self-cleavage
A16C G50A	0.525
G17A A78C	0.268
A16U U79C	0.705
A16U G68C	1.03
A16U G68A	1.09
A16G C24U	0.808
A16G C24A	0.569
A16G G53U	1.02
A16G G53C	1.11
A16U A45G	0.982
G17A C58U	0.588
A16G G68U	1.01
A16G G68A	0.928
A16G G68C	1.06
A16C G39A	0.156
A16C G39U	0.244
A16C G39C	0.0831
G17A G59U	0.852
A16G U46G	0.554
A16G G55C	1.2
A16G G55U	0.914
A16G G40U	0.719
A16G G40A	1.13
G17A G73C	0.0615

Variant	self-cleavage
A16U U72G	0.465
G17A U23A	0.686
A16C U23A	0.89
A16C U79G	0.692
A16U A77C	0.0692
A16C G76A	1.08
A16C G76U	0.88
A16C G76C	0.731
A16U C33A	0.0639
A16C G55C	1.01
A16C G55U	0.425
A16U G29A	0.0378
A16U G29U	0.113
A16U G29C	0.104
G17A A42U	0.119
G17A A42C	0.229
G17A G54U	0.554
G17A C85U	0.641
G17A C85G	0.814
A16G C48A	0.802
A16G C48G	0.914
A16G C48U	1.42
G17A C61U	0.904
G17A C61G	0.406

Variant	self-cleavage
A16U C26G	0.831
G17A G82A	0.272
G17A G82U	0.346
G17A G82C	0.166
A16G C36U	0.655
A16G C36G	0
A16G A70U	0.499
G17A A56G	0.59
G17A A56C	0.847
A16U C62U	1.04
A16U C62G	0.575
A16C G67A	0.506
A16G G74U	0.494
A16G A45U	0.712
A16G A45G	0.772
G17A G52A	0.831
A16U C22A	0.604
A16G C33A	0.268
A16G C33G	0.19
G17A A87C	0.716
G17A A87G	0.745
A16U G17C	0.68
A16U G17U	0.589
A16G C75G	0.222

Variant	self-cleavage
A16G C75U	0.178
A16G C41G	0.623
A16U A43G	0.453
A16U A43C	0.32
A16C U65G	0.755
A16C U65A	0.65
A16U C18U	0.427
A16U C18G	0.227
G17A G50C	0.502
G17A G50U	0.815
A16U A51G	1.04
A16G C84G	0.623
A16G G34A	0.17
A16G G34C	0.0536
A16G G34U	0.324
A16G G82U	0.237
G17A C41G	0.0997
A16U C84G	1.09
A16U C84U	0.678
G17A C66G	0.652
A16U C21G	0.0665
A16U C21A	0.185
G17A G28A	0
A16C U69A	0.767

Variant	self-cleavage
A16C U69C	0.739
A16C U69G	0.923
A16C U47C	0.95
A16C U47G	0.185
A16G C22U	0.853
A16C G40U	0.73
A16C G40A	0.65
A16C G35U	0.107
A16C G35C	0.175
A16C G35A	0.175
G17A G35A	0.205
A16C G34C	0.104
A16U G81U	0.554
A16U G81C	0.342
G17A G76A	0.787
A16G A43U	0.623
A16G A77U	0.266
G17A C18G	0.095
A16G C18A	0.161
A16G C18U	0.554
A16C G80A	0.406
A16U U47A	0.639
A16G A83U	0.415
A16C G59U	0.808

Variant	self-cleavage
A16U A87U	0.862
A16U C85U	1.03
A16U C64G	0.782
G17A G38C	0.0791
A16U C61G	0.712
A16U C61U	1.04
G17A C84A	0.807
G17A C84U	0.598
G17A C84G	0.623
A16U A56G	0.831
A16U A56C	0.906
G17A G40A	0.655
A16U G82C	0.256
A16U G82U	1.06
A16U G82A	0.745
A16U G73U	0.237
G17A G81C	0.204
G17A G81U	0.182
A16G U37G	0.119
A16G U37C	0.997
A16G U37A	0.115
G17A G39A	0.095
G17A G39U	0.197
A16G A56U	1.25

Variant	self-cleavage
A16G A56C	0.862
A16G U27G	0.594
A16G U27C	0.675
A16G U47G	1.14
A16U A83C	0.575
A16U A78U	0.332
G17A C33A	0.0875
G17A C33G	0.0369
G17A A70U	0.616
G17A U20A	0.253
A16G U79A	0.997
A16G U79C	1.08
A16G U79G	0.598
A16G C19G	0.151
A16G C19A	0.237
A16G C19U	0.178
G17A C24A	0.089
G17A C24U	0.26
A16C G31U	0
G17A G80U	0.198
G17A G80A	0.205
A16U A71U	0.877
A16U A71G	0.782
